Measurements as given in PMC9463231 (2022).

How the values were obtained:
Assay in all cases: SPR
[1] = target: T1, biotinylated mouse FcγRIV (mouse, UniProt A0A0B4J1G0 21-203, biotin)
T1 chain: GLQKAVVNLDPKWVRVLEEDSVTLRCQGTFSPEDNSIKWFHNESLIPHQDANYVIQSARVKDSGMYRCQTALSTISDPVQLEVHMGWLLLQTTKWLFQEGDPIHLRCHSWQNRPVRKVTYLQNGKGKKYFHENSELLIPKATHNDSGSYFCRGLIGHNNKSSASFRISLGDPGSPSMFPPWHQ

His-tagged mouse FcγRIII = target: T2, His-tagged mouse FcγRIII (mouse, UniProt P08508 31-261)
T2 chain: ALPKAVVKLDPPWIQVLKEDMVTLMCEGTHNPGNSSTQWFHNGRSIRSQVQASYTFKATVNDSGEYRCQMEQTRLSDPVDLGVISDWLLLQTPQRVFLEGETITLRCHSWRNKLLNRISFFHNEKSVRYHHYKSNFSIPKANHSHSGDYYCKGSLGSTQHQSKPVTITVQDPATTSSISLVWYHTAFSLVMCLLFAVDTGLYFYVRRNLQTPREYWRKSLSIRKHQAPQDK

biotinylated mouse FcγRI = target: T3, biotinylated mouse FcγRI (mouse, UniProt P26151 25-297, biotin)
T3 chain: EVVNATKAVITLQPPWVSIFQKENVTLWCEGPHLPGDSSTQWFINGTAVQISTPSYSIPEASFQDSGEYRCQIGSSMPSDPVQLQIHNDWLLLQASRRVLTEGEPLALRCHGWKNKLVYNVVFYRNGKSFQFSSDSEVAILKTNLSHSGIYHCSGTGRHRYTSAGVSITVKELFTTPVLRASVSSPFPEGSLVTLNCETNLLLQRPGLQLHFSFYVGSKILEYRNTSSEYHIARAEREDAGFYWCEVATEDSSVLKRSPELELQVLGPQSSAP

Kd [1]: 388 nM
Kd (His-tagged mouse FcγRIII): 3690 nM
Kd (biotinylated mouse FcγRI): 85.8 nM
B1: Ipilimumab mIgG2a wildtype (anti-human CTLA-4 mIgG2a with an intact Fc domain) (antibody)
chain 1: QVQLVESGGGVVQPGRSLRLSCAASGFTFSSYTMHWVRQAPGKGLEWVTFISYDGNNKYYADSVKGRFTISRDNSKNTLYLQMNSLRAEDTAIYYCARTGWLGPFDYWGQGTLVTVSS
chain 2: not shown
